Measurements: patent publication US20250325630A1, “HOMODIMER FUSION PROTEINS FOR TREATING ATOPIC DERMATITIS” (Intervet Inc., priority 2021, published 2025)
Numbering of substitutions follows the chain as printed. Names may count otherwise.

T1: canine IL-13 (cIL-13) (Canis lupus familiaris, UniProt Q9N0W9)
T1 sequence (Q9N0W9 19-131): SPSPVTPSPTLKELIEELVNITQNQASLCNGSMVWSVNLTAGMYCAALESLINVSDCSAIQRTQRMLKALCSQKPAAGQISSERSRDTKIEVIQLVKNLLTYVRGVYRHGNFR

T2: canine IL-4 (cIL-4) (Canis lupus familiaris, UniProt O77762)
T2 sequence (O77762 25-132): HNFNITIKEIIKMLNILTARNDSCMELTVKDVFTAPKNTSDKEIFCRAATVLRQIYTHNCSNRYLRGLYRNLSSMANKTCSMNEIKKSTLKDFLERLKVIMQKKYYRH

B1: cIL-13Rα2-cFc-YD: cIL-13Rα2-cIgGB-Fc with L18Y/T22D half-life substitutions, SEQ ID NO: 13 (protein)
chain: SMLSNAEIKVNPPQDFEIVDPGYLGYLSLQWQPPLFPDNFKECTIEYELKYRNIDSENWKTIITKNLHYKDGFDLNKGIEAKINTLLPAQCTNGSEVRSSWAETTYWTSPQGNRETKIQDMDCVYYNWQYLVCSWKPGMGVHFDTNYQLFYWYEGLDHSAECTDYIKVNGKNMGCRFPYLESSDYKDFYICVNGSSESQPIRPSYFIFQLQNIVKPMPPDYLSLTVKNSEEINLKWNMPKGPIPAKCFIYEIEFTEDGTTWVTTTVENEIQITRTSNESQKLCFLVRSKVNIYCSDDGIWSEWSDEQCWKGDIWKETPKRENGRVPRPPDCPKCPAPEMLGGPSVFIFPPKPKDTLYIARDPEVTCVVVDLDPEDPEVQISWFVDGKQMQTAKTQPREEQFNGTYRVVSVLPIGHQDWLKGKQFTCKVNNKALPSPIERTISKARGQAHQPSVYVLPPSREELSKNTVSLTCLIKDFFPPDIDVEWQSNGQQEPESKYRTTPPQLDEDGSYFLYSKLSVDKSRWQRGDTFICAVMHEALHNHYTQESLSHSPGK
modifications: homodimer
B2: cIL-13Rα2-cFc-YTE: cIL-13Rα2-cIgGB-Fc with L18Y/A20T/T22E half-life substitutions, SEQ ID NO: 10 (protein)
chain: B1 chain with A359T, D361E
modifications: homodimer
B3: cIL-13Rα2-cFc: homodimer of canine IL-13Rα2 ECD, IgGB hinge region and IgGB cFc fusion protein, SEQ ID NO: 7 (protein)
chain: B1 chain with Y357L, D361T
modifications: homodimer
B4: cIL-13Rα1-cFc-YTE: cIL-13Rα1-cIgGB-Fc with L18Y/A20T/T22E half-life substitutions, SEQ ID NO: 9 (protein)
chain: GGVAAPTETQPPVTNLSVSVENLCTVIWTWDPPEGASPNCTLRYFSHFDNKQDKKIAPETHRSKEVPLNERICLQVGSQCSTNESDNPSILVEKCTPPPEGDPESAVTELQCVWHNLSYMKCTWLPGRNTSPDTNYTLYYWHSSLGKILQCEDIYREGQHIGCSFALTNLKDSSFEQHSVQIVVKDNAGKIRPSFNIVPLTSHVKPDPPHIKRLFFQNGNLYVQWKNPQNFYSRCLSYQVEVNNSQTETNDIFYVEEAKCQNSEFEGNLEGTICFMVPGVLPDTLNTVRIRVRTNKLCYEDDKLWSNWSQAMSIGENTDPTPKRENGRVPRPPDCPKCPAPEMLGGPSVFIFPPKPKDTLYITREPEVTCVVVDLDPEDPEVQISWFVDGKQMQTAKTQPREEQFNGTYRVVSVLPIGHQDWLKGKQFTCKVNNKALPSPIERTISKARGQAHQPSVYVLPPSREELSKNTVSLTCLIKDFFPPDIDVEWQSNGQQEPESKYRTTPPQLDEDGSYFLYSKLSVDKSRWQRGDTFICAVMHEALHNHYTQESLSHSPGK
modifications: homodimer
B5: cIL-13Rα1-cFc: homodimer of canine IL-13Rα1 ECD, IgGB hinge region and IgGB cFc fusion protein, SEQ ID NO: 6 (protein)
chain: B4 chain with Y361L, T363A, E365T
modifications: homodimer
B6: cIL-4Rα-cFc-H: cIL-4Rα-cIgGB-Fc with N202H half-life substitution, SEQ ID NO: 11 (protein)
chain: VKVLHEPSCFSDYISTSVCQWKMDHPTNCSAELRLSYQLDFMGSENHTCVPENREDSVCVCSMPIDDAVEADVYQLDLWAGQQLLWSGSFQPSKHVKPRTPGNLTVHPNISHTWLLMWTNPYPTENHLHSELTYMVNVSNDNDPEDFKVYNVTYMGPTLRLAASTLKSGASYSARVRAWAQTYNSTWSDWSPSTTWLNYYEPWEQHLPPKRENGRVPRPPDCPKCPAPEMLGGPSVFIFPPKPKDTLLIARTPEVTCVVVDLDPEDPEVQISWFVDGKQMQTAKTQPREEQFNGTYRVVSVLPIGHQDWLKGKQFTCKVNNKALPSPIERTISKARGQAHQPSVYVLPPSREELSKNTVSLTCLIKDFFPPDIDVEWQSNGQQEPESKYRTTPPQLDEDGSYFLYSKLSVDKSRWQRGDTFICAVMHEALHHHYTQESLSHSPGK
modifications: homodimer
B7: cIL-4Rα-cFc-YTE: cIL-4Rα-cIgGB-Fc with L18Y/A20T/T22E half-life substitutions, SEQ ID NO: 8 (protein)
chain: B6 chain with L248Y, A250T, T252E, H432N
modifications: homodimer
B8: cIL-4Rα-cFc: homodimer of canine IL-4Rα ECD, IgGB hinge region and IgGB cFc fusion protein, SEQ ID NO: 5 (protein)
chain: B6 chain with H432N
modifications: homodimer

Tests used:
[1] = target: T1, canine IL-13 (cIL-13); test: Binding kinetics of cFc fusion proteins to canine IL-13 (OCTET HTX); details: for ka / kdis: Table 4, cIL-13; for ka: association rate constant; for kdis: dissociation rate constant
Procedure: (§1) The binding constants for the cFc fusion proteins provided in Tables 3 and 4 below, were determined using OCTET® HTX. All kinetics measurements were performed by OCTET® HTX using SA® biosensors and DATA ACQUISITION® 12.0 software. 10 μg/mL of biotin-labeled antigen, either canine IL-4 (cIL-4) or canine IL-13 (cIL-13) were loaded onto the SAR biosensors for 120 seconds. Next, the biosensors were placed into 1×pH 7.0 TBS/Casein buffer for 60 seconds for the blocking phase. For the association phase, antigen loaded biosensors were placed into 2-fold serial dilutions from 1 μM down to 15.6 nM of the wild-type, the bispecific, or the FcRn-mutant receptor Fc-fusions that recognized the cIL-4 or cIL-13 antigen in 1×pH 7.0 TBS/Casein buffer for 30 seconds. The last well was buffer alone and that sensor was used for reference sensor subtraction. Finally, the biosensors were placed into 1×pH 7.0 TBS/Casein buffer for 120 seconds for the dissociation phase. The results were then analyzed using Data Analysis 12.0 software and the curves were fitted using a 1:1 binding model.

[2] = test system: cIL-13 mediated STAT6 phosphorylation; test: Inhibition of cIL-13 mediated STAT6 phosphorylation in DH82 cells (AlphaLISA p-STAT6); format: cell-based, canine; details: DH82 cells
Procedure: The ability of the cFc fusion proteins to block the signaling mediated by IL-4 and IL-13, as measured by inhibition of STAT-6 phosphorylation in DH82 cells, were determined as follows:
• 1. Actively growing DH82 cells: Merck Animal Health Lot: 628-011, 24Oct14 • 2. HBSS, 1×: Corning, Catalog 21-022-CM • 3. AlphaLISA p-STAT6 (Tyr641) Assay Kit: Perkin Elmer, Catalog ALSU-PST6-A10K • 4. Recombinant canine IL-4: R&D Systems, Catalog: 752-CL/CF • 5a. cFc fusion protein samples for IL-4 studies • (i) cIL4Rα-cFc • (ii) cIL4Rα-IL13Rα1 ZW1-cFc • (iii) cIL4Rα-IL13Rα2 ZW1-cFc • 5b. cFc fusion protein samples for IL-13 studies: • (i) CIL13Rα1-cFc • (ii) cIL13Rα2-cFc • (iii) cIL4R-IL13Rα1 ZW1-cFc • (iv) cIL4R-IL13Rα2 ZW1-cFc • 6. Perkin Elmer® Envision
• 1. Tissue culture plates were seeded with […] DH82 cells per well (40 μL with the density of 2.5×10^5 cells/mL) and incubated at 37° C. for 2 hours. • 2. The cFc fusion proteins were pre-diluted to 2000 nM (500 nM final concentration in the well) and then 3-fold serially diluted in Hank's Balanced Salt Solution (HBSS). The proteins were added by transferring 20 μL/well to the respective locations on the tissue culture plates containing DH82 cells. • 3. (a) Canine IL-4 was diluted to 10 ng/ml in HBSS (2.5 ng/ml in the well) and 20 μL was added to each well of the plates. The plates were incubated for 15 min at 37° C.; or alternatively • (b) Canine IL-13 was diluted to 20 ng/ml in HBSS (5 ng/ml in the well) and 20 μL was added to each well of the plates. The plates were incubated for 15 min at 37° C. • 4. The plates were removed from the incubator and 20 μL of 4× Lysis buffer from the AlphaLISA® p-STAT-6 Assay Kit was added to each well of the plate. The plate was agitated on a plate shaker with 350 rpm for 10 minutes at room temperature. • 5. The Acceptor Mix was prepared from the AlphaLISA® p-STAT6 Assay Kit and 15 μL per well was added to 30 μL of the cell lysate in 96-well ½ Area Plates. The plates were sealed, agitated for 2 minutes at 350 rpm, and then incubated for 1 hour at room temperature. • 6. The Donor Mix was prepared from the AlphaLISA® p-STAT6 Assay kit under subdued laboratory lighting and 15 μL per well was added to each plate. The plates were sealed, covered with foil, agitated for 2 minutes at 350 rpm, and then incubated for 1 hour at room temperature. • 7. The plates were read using the AlphaScreen settings on the Perkin Elmer® En Vison.

[3] = target: T2, canine IL-4 (cIL-4); test: Binding kinetics of cFc fusion proteins to canine IL-4 (OCTET HTX); details: for ka / kdis: Table 3, cIL-4, ND = Binding Not Detected; for ka: association rate constant; for kdis: dissociation rate constant; for Kd: approximate values, read-out: binding constant (KD) with cIL-4
Procedure: as §1

Molecule	ka [1]	kdis [1]	ka [3]	kdis [3]	also measured
B1	1.15e+06 M⁻¹ s⁻¹	5.07e-07 s⁻¹			
B2	1.17e+06 M⁻¹ s⁻¹	5.04e-07 s⁻¹			
B3	1e+06 M⁻¹ s⁻¹	7.45e-07 s⁻¹			
B4	66500 M⁻¹ s⁻¹	0.0011 s⁻¹			decrease in the affinity for cIL-13 relative to unmodified cIL-13Rα1-cFc [1]: about 4 fold; Kd ([1]; approximate values, read-out: binding constant (KD) with cIL-13): 20 nM
B5	58000 M⁻¹ s⁻¹	0.000312 s⁻¹			concentration inhibiting 50% of the cIL-13 mediated STAT6 phosphorylation (in words) [2]: well above nanomolar concentrations
B6			785000 M⁻¹ s⁻¹	9.88e-05 s⁻¹	loss in affinity for cIL-4 (KD times higher) relative to unmodified cIL-4Rα-cFc homodimer [3]: about 10 fold; Kd [3]: 0.1 nM
B7			830000 M⁻¹ s⁻¹	9.23e-06 s⁻¹	loss in affinity for cIL-4 (KD times higher) relative to unmodified cIL-4Rα-cFc homodimer [3]: ~100 fold; Kd [3]: 0.01 nM
B8			703000 M⁻¹ s⁻¹	8.3e-07 s⁻¹	
